{
  "source": "patent US8357523B2",
  "about": "“Beta-glucosidase variant enzymes and related polynucleotides” (Codexis, Inc., priority 2009, dated 2013)",
  "data": [
    {"test": "High throughput cellobiose assay: fold improvement in cellobiase activity of CelA variants over a control enzyme (Tables 2A-2D, 3, 5, 6, 7)", "format": "biochemical", "details": "3.3 g/l cellobiose, 65° C. and pH 5 (incubation overnight); relative to Control #5, Variant No. 366 (SEQ ID NO: 9)", "values": [
      {"molecule": "430 (protein, truncated; signal peptide F-10T) SAAITQEGAAPAAMLHPEKWPRPATQRLIDPAVEKRVDALLKQLSVEEKVGQVIQGDIGTITPEDLRKYPLGSILAGGDSGPNGDDRAPPKEWLDLADAFYRVSLEKRDGHTPIPVLFGIDAVHGHNNIGSATIFPHNIALGMTRDPELLRRIGEVTAEEMAATGIDWTFAPALSVPRDDRWGRTYEGFSEDPEIVASYSAAIVEGFQGKYGSKDFMAPGRAVACAKHFLADGGTDQGRDQGDARISEDELIRIHNAGYPPAIDAGVLTVMASFSSWQGIKHHGHKQLLTDVLKGQMGFNGFIVGDWNAHDQVPGCTKFNCPTSLIAGLDMYMAADSWKQLYENTLAQVKDGTIPMARLDDAVRRILRVKVLAGLFEKPAPKDRPGLPGLETLGSPEHRAVGREAVRKSLVLLKNDKGTLPLSPKARVLVAGDGADNIGKQSGGWTISWQGTGNRNDEFPGATSILGGIRDAVADAGGSVEFDVAGQYKTKPDVAIVVFGEEPYAEFRGDVETLEYQPDQKQDLTLLKKLKDQGIPVVAVFLSGRPMWVNPELNASDAFVAAWLPGTEGGGVADVLFTDKAGKVQHDFAGKLSYSWPRTAAQTTVNRGDADYNPLFAYGYGLTYKDKSKVGTLPEESGVPAEARQNAGIYFRAGALRLPGRFL", "Fold Improvement over Control Variant": "++ (++ = 1.1 to 2.0 fold improvement over control Variant No. 366)"},
      {"molecule": "396 (protein, truncated; signal peptide F-10T) SAASTQEGAAPAAMLHPEKWPRPATQRLIDPAVEKRVDALLKQLSVEEKVGQVIQGDIGTITPEDLRKYPLGSILAGGDSGPNGDDRAPPKEWLDLADAFYRVSLEKRPGHTPIPVLFGIDAVHGHNNIGSATIFPHNIALGMTRDPELLRRIGEVTAEEMAATGIDWTFAPALSVPRDDRWGRTYEGFSEDPEIVASYSAAIVEGFQGKYGSKDFMAPGRAVACAKHFLADGGTDQGRDQGDARISEDELIRIHNAGYPPAIDAGVLTVMASFSSWQGIKHHGHKQLLTDVLKGQMGFNGFIVGDWNAHDQVPGCTKFNCPTSLIAGLDMYMAADSWKQLYENTLAQVKDGTIPMARLDDAVRRILRVKVLAGLFEKPAPKDRPGLPGLETLGSPEHRAVGREAVRKSLVLLKNDKGTLPLSPKARVLVAGDGADNIGKQSGGWTISWQGTGNRNDEFPGATSILGGIRDAVADAGGSVEFDVAGQYKTKPDVAIVVFGEEPYAEFRGDVETLEYQPDQKQDLTLLKKLKDQGIPVVAVFLSGRPMWVNPELNASDAFVAAWLPGTEGGGVADVLFTDKAGKVQHDFAGKLSYSWPRTAVQTTVNRGDADYNPLFAYGYGLTYKDKSKVGTLPEESGVPAEARQNAGIYFRAGALRLPGRFL", "Fold Improvement over Control Variant": "++ (++ = 1.1 to 2.0 fold improvement over control Variant No. 366)"},
      {"molecule": "393 (protein, truncated; signal peptide F-10T) SARSTQEGAAPAAMLHPEKWPRPATQRLIDPAVEKRVDALLKQLSVEEKVGQVIQGDIGTITPEDLRKYPLGSILAGGDSGPNGDDRAPPKEWLDLADAFYRVSLEKRPGHTPIPVLFGIDAVHGHNNIGSATIFPHNIALGMTRDPELLRRIGEVTAEEMAATGIDWTFAPALSVPRDDRWGRTYEGFSEDPEIVASYSAAIVEGFQGKYGSKDFMAPGRAVACAKHFLADGGTDQGRDQGDARISEDELIRIHNAGYPPAIDAGVLTVMASFSSWQGIKHHGHKQLLTDVLKGQMGFNGFIVGDWNAHDQVPGCTKFNCPTSLIAGLDMYMAADSWKQLYENTLAQVKDGTIPMARLDDAVRRILRVKVLAGLFEKPAPKDRPGLPGLETLGSPEHRAVGREAVRKSLVLLKNDKGTLPLSPKARVLVAGDGADNIGKQSGGWTISWQGTGNRNDEFPGATSILGGIRDAVADAGGSVEFDVAGQYKTKPDVAIVVFGEEPYAEFRGDVETLEYQPDQKQDLTLLKKLKDQGIPVVAVFLSGRPMWVNPELNASDAFVAAWLPGTEGGGVADVLFTDKAGKVQHDFAGKLSYSWPRTAAQTTVNRGDADYNPLFAYGYGLTYKDKSKVGTLPEESGVPAEARQNAGIYFRAGALRLPGRFL", "Fold Improvement over Control Variant": "++ (++ = 1.1 to 2.0 fold improvement over control Variant No. 366)"},
      {"molecule": "395 (protein, truncated; signal peptide F-10T) SARITQEGAAPAAMLHPEKWPRPATQRLIDPAVEKRVDALLKQLSVEEKVGQVIQGDIGTVTPEDLRKYPLGSILAGGDSGPNGDDRAPPKEWLDLADAFYRVSLEKRPGHTPIPVLFGIDAVHGHNNIGSATIFPHNIALGMTRDPELLRRIGEVTAEEMAATGIDWTFAPALSVPRDDRWGRTYEGFSEDPEIVASYSAAIVEGFQGKYGSKDFMAPGRAVACAKHFLADGGTDQGRDQGDARISEDELIRIHNAGYPPAIDAGVLTVMASFSSWQGIKHHGHKQLLTDVLKGQMGFNGFIVGDWNAHDQVPGCTKFNCPTSLIAGLDMYMAADSWKQLYENTLAQVKDGTIPMARLDDAVRRILRVKVLAGLFEKPAPKDRPGLPGLETLGSPEHRAVGREAVRKSLVLLKNDKGTLPLSPKARVLVAGDGADNIGKQSGGWTISWQGTGNRNDEFPGATSILGGIRDAVADAGGSVEFDVAGQYKTKPDVAIVVFGEEPYAEFRGDVETLEYQPDQKQDLTLLKKLKDQGIPVVAVFLSGRPMWVNPELNASDAFVAAWLPGTEGGGVADVLFTDKAGKVQHDFAGKLSYSWPRTAAQTTVNRGDADYNPLFAYGYGLTYKDKSKVGTLPEESGVPAEARQNAGIYFRAGALRLPGRFL", "Fold Improvement over Control Variant": "++ (++ = 1.1 to 2.0 fold improvement over control Variant No. 366)"},
      {"molecule": "431 (protein, truncated; signal peptide F-10T) SAAITQEGAAPAPMLHPEKWPRPATQRLIDPAVEKRVDALLKQLSVEEKVGQVIQGDIGTITPEDLRKYPLGSILAGGDSGPNGDDRAPPKEWLDLADAFYRVSLEKRDGHTPIPVLFGIDAVHGHNNIGSATIFPHNIALGMTRDPELLRRIGEVTAEEMAATGIDWTFAPALSVPRDDRWGRTYEGFSEDPEIVASYSAAIVEGFQGKYGSKDFMAPGRAVACAKHFLADGGTDQGRDQGDARISEDELIRIHNAGYPPAIDAGVLTVMASFSSWQGIKHHGHKQLLTDVLKGQMGFNGFIVGDWNAHDQVPGCTKFNCPTSLIAGLDMYMAADSWKQLYENTLAQVKDGTIPMARLDDAVRRILRVKVLAGLFEKPAPKDRPGLPGLETLGSPEHRAVGREAVRKSLVLLKNDKGTLPLSPKARVLVAGDGADNIGKQSGGWTISWQGTGNRNDEFPGATSILGGIRDAVADAGGSVEFDVAGQYKTKPDVAIVVFGEEPYAEFRGDVETLEYQPDQKQDLSLLKKLKDQGIPVVAVFLSGRPMWVNPELNASDAFVAAWLPGTEGGGVADVLFTDKAGKVQHDFAGKLSYSWPRTAAQTTVNRGDADYNPLFAYGYGLTYKDKSKVGTLPEESGVPAEARQNAGIYFRAGALRLPGRFL", "Fold Improvement over Control Variant": "++ (++ = 1.1 to 2.0 fold improvement over control Variant No. 366)"},
      {"molecule": "432 (protein, truncated; signal peptide F-10T, I-14V) SARITQEGAAPAAMLHPEKWPRPATQRLIDPAVEKRVDALLKQLSVEEKVGQVIQGDIGTITPEDLRKYPLGSILAGGDSGPNGDDRAPPKEWLDLADAFYRVSLEKRPGHTPIPVLFGIDAVHGHNNIGSATIFPHNIALGMTRDTELLRRIGEVTAEEMAATGIDWTFAPALSVPRDDRWGRTYEGFSEDPEIVASYSAAYVEGFQGKYGSKDFMAPGRAVACAKHFLADGGTDQGRDQGDARISEDELIRIHNAGYPPAIDAGVLTVMASFSSWQGIKHHGHKQLLTDVLKGQMGFNGFIVGDWNAHDQVPGCTKFNCPTSLIAGLDMYMAADSWKQLYENTLAQVKDGTIPMARLDDAVRRILRVKVLAGLFEKPAPKDRPGLPGLETLGSPEHRAVGREAVRKSLVLLKNDKGTLPLSPKARVLVAGDGADNIGKQSGGWTISWQGTGNRNDEFPGATSILGGIRDAVADAGGSVEFDVAGQYKTKPDVAIVVFGENPYAEFRGDVETLEYQPDQKQDLTLLKKLKDQGIPVVAVFLSGRPMWVNPELNASDAFVAAWLPGTEGGGVADVLFTDKAGKVQYDFAGKLSYSWPRTAAQTTVNRGDADYNPLFAYGYGLTYKDKSKVGTLPEESGVPAEARQNAGIYFRAGALRLPGRFL", "Fold Improvement over Control Variant": "++ (++ = 1.1 to 2.0 fold improvement over control Variant No. 366)"},
      {"molecule": "434 (protein, truncated; signal peptide F-10T) SAAITQEGAAPAPMLHPEKWPRPATQRLIDPAVEKRVDALLKQLSVEEKVGQVIQGDIGTITPEDLRKYPLGSILAGGDSGPNGDDRAPPKEWLDLADAFYRVSLEKRPGHTPIPVLFGIDAVHGHNNIGSATIFPHNIALGMTRDPELLRRIGEVTAEEMAATGIDWTFAPALSVVRDDRWGRTYEGFSEDPEIVASYSAAYVEGFQGKYGSKDFMAPGRAVACAKHFLADGGTDQGRDQGDARISEDELIRIHNAGYPPAIDAGVLTVMASFSSWQGIKHHGHKQLLTDVLKGQMGFNGFIVGDWNAHDQVPGCTKFNCPTSLIAGLDMYMAADSWKQLYENTLAQVKDGTIPMARLDDAVRRILRVKVLAGLFEKPAPKDRPGLPGLETLGSPEHRTVGREAVRKSLVLLKNDKGTLPLSPKARVLVAGDGADNIGKQSGGWTISWQGTGNRNDEFPGATSILGGIRDAVADAGGSVEFDVAGQYKTKPDVAIVVFGENPYAEFRGDVETLEYQPDQKQDLTLLKKLKDQGIPVVAVFLSGRPMWVNPELNASDAFVAAWLPGTEGGGVADVLFTDKAGKVQHDFAGKLSYSWPRTAAQTTVNRGDADYNPLFAYGYGLTYKDKSKVGTLPEESGVPAEARQNAGIYFRAGALRLPGRFL", "Fold Improvement over Control Variant": "++ (++ = 1.1 to 2.0 fold improvement over control Variant No. 366)"},
      {"molecule": "433 (protein, truncated; signal peptide F-10T) SARITQEGAAPAAMLHPEKWPRPATQRLIDPAVEKRVDALLKQLSVEEKVGQVIQGDIGTITPEDLRKYPLGSILAGGDSGPNGDDRAPPKEWLDLADAFYRVSLEKRPGHTPIPVLFGIDAVHGHNNIGSATIFPHNIALGMTRDPELLRRIGEVTAEEMAATGIDWTFAPALSVPRDDRWGRTYEGFSEDPEIVASYSAAIVEGFQGKYGSKDFMAPGRAVACAKHFLADGGTDQGRDQGDARISEDELIRIHNAGYPPAIDAGVLTVMASFSSWQGIKHHGHKQLLTDVLKGQMGFNGFIVGDWNAHDQVPGCTKFNCPTSLIAGLDMYMAADSWKQLYENTLAQVKDGTIPMARLDDAVRRILRVKVLAGLFEKPAPKDRPGLPGLETLGSPEHRAVGREAVRKSLVLLKNDKGTLPLSPKARVLVAGDGADNIGKQSGGWTISWQGTGNRNDEFPGATSILGGIRDAVADAGGSVEFDVAGQYKTKPDVAIVVFGEEPYAEFRGDVETLEYQPDQKQDLTLLKKLKDQGIPVVAVFLSGRPMWVNPELNASDAFVAAWLPGTEGGGVADVLFTDKAGKVQHDFAGKLSYSWPRTAAQTTVNRGDADYNPLFAYGYGLTYKDKSKVGTLPEESGVPAEARQNAGIYFRAGALRLPGRFL", "Fold Improvement over Control Variant": "++ (++ = 1.1 to 2.0 fold improvement over control Variant No. 366)"}
    ]}
  ]
}
